Experimental data published in US20250340603A1, “A METHOD FOR MODULATING PLANT ADAPTATION TRAITS” (CRAG (Centre de Recerca en Agrigenòmica), priority 2021, published 2025).
Residue numbers refer to the chain shown, from its start.

Assays:
[1] = tested on: WT (Col-0) and brl3-2 mutant seedlings; assay: Bikinin sensitivity assay (hypocotyl elongation); type: in vivo, Arabidopsis thaliana; conditions: 6 d, LD
Description: Chemicals used include; 1 μM BRZ220 (Gift from T. Nakano, RIKEN, Japan) or 50 μM Bikinin (200980, Sigma-Aldrich) for 6-d in control (long days, 22° C.) or high temperature (long days, 28° C.) conditions. Hypocotyl length were measured using the Image J software (v.1.48v) (https-/imagej.nih.gov/ij/).
For hypocotyl elongation analysis, seedlings were grown in horizontally placed 0.5MS− media plates in controlled growth conditions (Aralab 600; long days 16:8h day/night cycle 60% relative humidity and 50-70 μmol m^−2 s^−1 of cool-white fluorescent light) at 22° C. or 28° C. temperature for 5-7d. Plates were photographed and hypocotyl length were measured using the ImageJ software (v.1.48v) (https:/imagej.nih.gov/ij/). For root growth analysis, seedlings were grown in vertically placed 0.5MS− media plates in controlled growth conditions (Aralab 600; long days 16:8h day/night cycle; 22° C.). MyROOT software (Betegón-Putzé et al., 2019) was used to compare root growth of plants. Lateral roots were manually counted under a stereozoom microscope in 9-d-old seedlings.
Seedlings were grown in horizontally placed 0.5MS− media supplemented with or without 50 μM Bikinin (200980, Sigma-Aldrich) for 6-d in control (long days, 22° C.) or high temperature (long days, 28° C.) conditions. Hypocotyl length were measured using the Image J software (v.1.48v) (https://imagej.nih.gov/ii/).

[2] = molecular target: T1, BRL3T1025A, phospho-dead version of the BRL3 kinase domain
T1 chain: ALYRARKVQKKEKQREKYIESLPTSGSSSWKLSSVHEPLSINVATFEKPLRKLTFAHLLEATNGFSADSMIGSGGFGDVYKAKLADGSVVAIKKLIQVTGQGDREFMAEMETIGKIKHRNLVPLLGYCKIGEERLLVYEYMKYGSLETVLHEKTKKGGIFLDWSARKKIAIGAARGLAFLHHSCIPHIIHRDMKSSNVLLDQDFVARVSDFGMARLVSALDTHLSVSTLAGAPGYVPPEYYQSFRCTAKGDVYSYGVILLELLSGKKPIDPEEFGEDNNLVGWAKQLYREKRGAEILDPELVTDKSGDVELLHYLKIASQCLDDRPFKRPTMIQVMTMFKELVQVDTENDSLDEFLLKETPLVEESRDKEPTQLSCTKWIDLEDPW

[3] = molecular target: T2, KIN7 kinase domain, GST- or MBP-tagged, from E. coli
T2 chain: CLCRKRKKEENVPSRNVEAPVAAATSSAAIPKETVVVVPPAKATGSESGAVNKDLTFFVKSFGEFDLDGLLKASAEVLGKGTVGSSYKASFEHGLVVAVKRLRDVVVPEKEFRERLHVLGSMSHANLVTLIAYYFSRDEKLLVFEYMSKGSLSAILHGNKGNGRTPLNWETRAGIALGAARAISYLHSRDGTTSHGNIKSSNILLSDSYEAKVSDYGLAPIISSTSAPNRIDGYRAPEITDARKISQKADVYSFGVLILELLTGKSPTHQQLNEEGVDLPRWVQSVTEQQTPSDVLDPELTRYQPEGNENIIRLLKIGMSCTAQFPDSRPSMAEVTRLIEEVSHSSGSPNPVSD

[4] = molecular target: T3, BRI1 (BRASSINOSTEROID … 1), BiFC negative control (Arabidopsis, UniProt O22476 24-1196); assay: BiFC (split YFP) in Nicotiana benthamiana leaves, confocal microscopy
T3 construct: whole, on cells; not shown: the construct of this control is not described
T3 sequence (looked up): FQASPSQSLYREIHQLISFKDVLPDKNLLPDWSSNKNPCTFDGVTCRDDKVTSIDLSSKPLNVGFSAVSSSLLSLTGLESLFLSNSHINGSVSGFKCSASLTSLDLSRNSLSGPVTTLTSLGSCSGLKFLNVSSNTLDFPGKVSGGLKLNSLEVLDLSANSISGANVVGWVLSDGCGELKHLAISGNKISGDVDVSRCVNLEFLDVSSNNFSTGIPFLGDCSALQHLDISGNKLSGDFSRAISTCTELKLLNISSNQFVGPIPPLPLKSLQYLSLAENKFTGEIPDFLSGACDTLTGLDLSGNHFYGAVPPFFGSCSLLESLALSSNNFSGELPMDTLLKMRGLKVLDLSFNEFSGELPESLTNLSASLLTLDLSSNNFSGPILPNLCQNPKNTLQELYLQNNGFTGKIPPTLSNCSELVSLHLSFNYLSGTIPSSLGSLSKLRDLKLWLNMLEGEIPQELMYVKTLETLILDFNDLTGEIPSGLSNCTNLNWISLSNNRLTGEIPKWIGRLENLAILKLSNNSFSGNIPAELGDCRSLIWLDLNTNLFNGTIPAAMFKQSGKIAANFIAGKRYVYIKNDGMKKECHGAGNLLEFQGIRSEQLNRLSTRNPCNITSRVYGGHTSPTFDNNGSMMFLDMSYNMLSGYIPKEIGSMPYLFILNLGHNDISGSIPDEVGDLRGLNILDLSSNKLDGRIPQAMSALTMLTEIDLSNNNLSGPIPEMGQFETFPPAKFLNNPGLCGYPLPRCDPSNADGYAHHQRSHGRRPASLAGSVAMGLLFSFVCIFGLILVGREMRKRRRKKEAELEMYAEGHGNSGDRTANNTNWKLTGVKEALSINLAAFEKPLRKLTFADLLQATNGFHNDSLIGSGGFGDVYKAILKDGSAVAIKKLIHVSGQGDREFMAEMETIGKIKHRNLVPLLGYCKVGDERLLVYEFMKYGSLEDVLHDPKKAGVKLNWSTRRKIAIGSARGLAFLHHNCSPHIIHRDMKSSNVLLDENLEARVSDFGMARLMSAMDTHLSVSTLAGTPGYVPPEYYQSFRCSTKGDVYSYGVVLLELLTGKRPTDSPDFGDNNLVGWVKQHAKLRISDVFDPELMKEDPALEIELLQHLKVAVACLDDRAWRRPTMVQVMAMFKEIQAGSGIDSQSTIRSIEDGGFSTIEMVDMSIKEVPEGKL

## O=C(O)CCC(=O)Nc1ccc(Br)cn1 [Bikinin]
[1]; 50 μM Bikinin in media, WT and brl3-2 mutant, control (22° C.) and high temperature (28° C.)
  hypocotyl elongation: promote hypocotyl elongation
[1]; 50 μM Bikinin, brl3-2 mutant, 28° C.
  rescue of brl3 conditional phenotypes (hypocotyl elongation) on elevated temperature: rescued brl3 conditional phenotypes

B1: KIN7 kinase domain, GST- or MBP-tagged, from E. coli (protein)
chain: T2 chain
[2]
  incorporation of 32P into BRL3 kinase (in vitro phosphorylation, autoradiography): KIN7 is not able to phosphorylate BRL3 domains given that the BRL3 phosphorylation pattern is lost when KIN7 is incubated with the phospho-dead version of BRL3 kinase

B2: BRL3 kinase domain, GST- or MBP-tagged, from E. coli (protein)
chain: T1 chain with A232T
[3]
  incorporation of 32P into KIN7 kinase (in vitro phosphorylation, autoradiography): The image show and autoradiography revealing the incorporation of 32P into KIN7 kinase when incubated with BRL3

B3: BRL3T1025A, phospho-dead version of the BRL3 kinase domain (protein)
chain: T1 chain
[3]
  incorporation of 32P into KIN7 kinase (in vitro phosphorylation, autoradiography): The phosphorylation in KIN7 kinase domain is lost when incubated with a phospho-dead version of BRL3, the BRL3T1025A

B4: BRL3 (BRASSINOSTEROID RECEPTOR LIKE 3), full length, fused to a half of YFP (BiFC construct) (receptor)
chain: RRLLSDDVNDTALLTAFKQTSIKSDPTNFLGNWRYGSGRDPCTWRGVSCSSDGRVIGLDLRNGGLTGTLNLNNLTALSNLRSLYLQGNNFSSGDSSSSSGCSLEVLDLSSNSLTDSSIVDYVFSTCLNLVSVNFSHNKLAGKLKSSPSASNKRITTVDLSNNRFSDEIPETFIADFPNSLKHLDLSGNNVTGDFSRLSFGLCENLTVFSLSQNSISGDRFPVSLSNCKLLETLNLSRNSLIGKIPGDDYWGNFQNLRQLSLAHNLYSGEIPPELSLLCRTLEVLDLSGNSLTGQLPQSFTSCGSLQSLNLGNNKLSGDFLSTVVSKLSRITNLYLPFNNISGSVPISLTNCSNLRVLDLSSNEFTGEVPSGFCSLQSSSVLEKLLIANNYLSGTVPVELGKCKSLKTIDLSFNALTGLIPKEIWTLPKLSDLVMWANNLTGGIPESICVDGGNLETLILNNNLLTGSLPESISKCTNMLWISLSSNLLTGEIPVGIGKLEKLAILQLGNNSLTGNIPSELGNCKNLIWLDLNSNNLTGNLPGELASQAGLVMPGSVSGKQFAFVRNEGGTDCRGAGGLVEFEGIRAERLEHFPMVHSCPKTRIYSGMTMYMFSSNGSMIYLDLSYNAVSGSIPLGYGAMGYLQVLNLGHNLLTGTIPDSFGGLKAIGVLDLSHNDLQGFLPGSLGGLSFLSDLDVSNNNLTGPIPFGGQLTTFPLTRYANNSGLCGVPLPPCSSGSRPTRSHAHPKKQSIATGMSAGIVFSFMCIVMLIMALYRARKVQKKEKQREKYIESLPTSGSSSWKLSSVHEPLSINVATFEKPLRKLTFAHLLEATNGFSADSMIGSGGFGDVYKAKLADGSVVAIKKLIQVTGQGDREFMAEMETIGKIKHRNLVPLLGYCKIGEERLLVYEYMKYGSLETVLHEKTKKGGIFLDWSARKKIAIGAARGLAFLHHSCIPHIIHRDMKSSNVLLDQDFVARVSDFGMARLVSALDTHLSVSTLAGTPGYVPPEYYQSFRCTAKGDVYSYGVILLELLSGKKPIDPEEFGEDNNLVGWAKQLYREKRGAEILDPELVTDKSGDVELLHYLKIASQCLDDRPFKRPTMIQVMTMFKELVQVDTENDSLDEFLLKETPLVEESRDKEPTQLSCTKWIDLEDPW
notes: also called BRL3 receptor; AT3G13380; not shown: half of YFP (YN or YC, both directions tested) from vectors pGTQL1211-YN / pGTQL1221-YC
[4]
  binding result: no binding
